Patent US20220135652A1 (FERRING B V, published 2022)

Target: T1, IL-6/sIL-6R complex (human, UniProt P05231 30-212; P08887 20-355, limits assumed)
T1 construct: Complex of IL-6 and soluble IL-6R; also called IL-6/sIL-6R trans-signalling complex
Experiment: method not stated; value given in Example 4 and used to calculate occupancy

Kd: 0.13 nM
B1: Peptide 1 (the polypeptide of SEQ ID NO: 1 in its active dimerized form) (Fc fusion)
chain: ELLDPCGYISPESPVVQLHSNFTAVCVLKEKCMDYFHVNANYIVWKTNHFTIPKEQYTIINRTASSVTFTDIASLNIQLTCNILTFGQLEQNVYGITIISGLPPEKPKNLSCIVNEGKKMRCEWDGGRETHLETNFTLKSEWATHKFADCKAKRDTPTSCTVDYSTVYFVNIEVWVEAENALGKVTSDHINFDPVYKVKPNPPHNLSVINSEELSSILKLTWTNPSIKSVIILKYNIQYRTKDASTWSQIPPEDTASTRSSFTVQDLKPFTEYVFRIRCMKEDGKGYWSDWSEEASGITYEDRPSKAPSFWYKIDPSHTQGYRTVQLVWKTLPPFEANGKILDYEVTLTRWKSHLQNYTVNATKLTVNLTNDRYLATLTVRNLVGKSDAAVLTIPACDFQATHPVMDLKAFPKDNMLWVEWTTPRESVKKYILEWCVLSDKAPCITDWQQEDGTVHRTYLRGNLAESKCYLITVTPVYADGPGSPESIKAYLKQAPPSKGPTVRTKKVGKNEAVLEWDQLPVDVQNGFIRNYTIFYRTIIGNETAVNVDSSHTEYTLSSLTSDTLYMVRMAAYTDEGGKDGPEFTFTTPKFAQGEDKTHTCPPCPAPEAEGAPSVFLFPPKPKDTLMISRTPEVTCVVVDVSHEDPEVKFNWYVDGVEVHNAKTKPREEQYNSTYRVVSVLTVLHQDWLNGKEYKCKVSNKALPAPIEKTISKAKGQPREPQVYTLPPSREEMTKNQVSLTCLVKGFYPSDIAVEWESNGQPENNYKTTPPVLDSDGSFFLYSKLTVDKSRWQQGNVFSCSVMHEALHNHYTQKSLSLSPGK
notes: Produced in CHO/dhfr- cells; 10 N-glycosylation sites per chain; also called gp130-Fc fusion dimer
